B1: hIL10 T100L (protein)
chain: SPGQGTQSENSCTHFPGNLPNMLRDLRDAFSRVKTFFQMKDQLDNLLLKESLLEDFKGYLGCQALSEMIQFYLEEVMPQAENQDPDIKAHVNSLGENLKLLRLRLRRCHRFLPCENKSKAVEQVKNAFNKLQEKGIYKAMSEFDIFINYIEAYMTMKIRN
B2: hIL10 WT (protein)
chain: SPGQGTQSENSCTHFPGNLPNMLRDLRDAFSRVKTFFQMKDQLDNLLLKESLLEDFKGYLGCQALSEMIQFYLEEVMPQAENQDPDIKAHVNSLGENLKTLRLRLRRCHRFLPCENKSKAVEQVKNAFNKLQEKGIYKAMSEFDIFINYIEAYMTMKIRN
B3: h_SS0053_AA (hIL10 T100L fused) (protein)
chain: SPGQGTQSENSCTHFPGNLPNMLRDLRDAFSRVKTFFQMKDQLDNLLLKESLLEDFKGYLGCQALSEMIQFYLEEVMPQAENQDPDIKAHVNSLGENLKLLRLRLRRCHRFLPCENKSKAVEQVKNAFNKLQEKGIYKAMSEFDIFINYIEAYMTMKIRNSPGQGTQSENSCTHFPGNLPNMLRDLRDAFSRVKTFFQMKDQLDNLLLKESLLEDFKGYLGCQALSEMIQFYLEEVMPQAENQDPDIKAHVNSLGENLKLLRLRLRRCHRFLPCENKSKAVEQVKNAFNKLQEKGIYKAMSEFDIFINYIEAYMTMKIRNGGSHHHHHHHH
B4: h_SS0052_AA (hIL10 WT fused) (protein)
chain: SPGQGTQSENSCTHFPGNLPNMLRDLRDAFSRVKTFFQMKDQLDNLLLKESLLEDFKGYLGCQALSEMIQFYLEEVMPQAENQDPDIKAHVNSLGENLKTLRLRLRRCHRFLPCENKSKAVEQVKNAFNKLQEKGIYKAMSEFDIFINYIEAYMTMKIRNSPGQGTQSENSCTHFPGNLPNMLRDLRDAFSRVKTFFQMKDQLDNLLLKESLLEDFKGYLGCQALSEMIQFYLEEVMPQAENQDPDIKAHVNSLGENLKTLRLRLRRCHRFLPCENKSKAVEQVKNAFNKLQEKGIYKAMSEFDIFINYIEAYMTMKIRN
B5: mIL10 WT (protein)
chain: SRGQYSREDNNCTHFPVGQSHMLLELRTAFSQVKTFFQTKDQLDNILLTDSLMQDFKGYLGCQALSEMIQFYLVEVMPQAEKHGPEIKEHLNSLGEKLKTLRMRLRRCHRFLPCENKSKAVEQVKSDFNKLQDQGVYKAMNEFDIFINCIEAYMMIKMKS
B6: mIL10 T100L (protein)
chain: SRGQYSREDNNCTHFPVGQSHMLLELRTAFSQVKTFFQTKDQLDNILLTDSLMQDFKGYLGCQALSEMIQFYLVEVMPQAEKHGPEIKEHLNSLGEKLKLLRMRLRRCHRFLPCENKSKAVEQVKSDFNKLQDQGVYKAMNEFDIFINCIEAYMMIKMKS
B7: WC163_AA (mIL10 WT fused) (protein)
chain: GNCTHFPVGQSHMLLELRTAFSQVKTFFQTKDQLDNILLTDSLMQDFKGYLGCQALSEMIQFYLVEVMPQAEKHGPEIKEHLNSLGEKLKTLRMRLRRCHRFLPCENKSKAVEQVKSDFNKLQDQGVYKAMNEFDIFINCIEAYMMIKMKSSRGQYSREDNQYSREDNSCTHFPVGQSHMLLELRTAFSQVKTFFQTKDQLDNILLTDSLMQDFKGYLGCQALSEMIQFYLVEVMPQAEKHGPEIKEHLNSLGEKLKTLRMRLRRCHRFLPCENKSKAVEQVKSDFNKLQDQGVYKAMNEFDIFINCIEAYMMIKMKS
B8: SS0051_AA (mIL10 T100L fused) (protein)
chain: GNCTHFPVGQSHMLLELRTAFSQVKTFFQTKDQLDNILLTDSLMQDFKGYLGCQALSEMIQFYLVEVMPQAEKHGPEIKEHLNSLGEKLKLLRMRLRRCHRFLPCENKSKAVEQVKSDFNKLQDQGVYKAMNEFDIFINCIEAYMMIKMKSSRGQYSREDNQYSREDNSCTHFPVGQSHMLLELRTAFSQVKTFFQTKDQLDNILLTDSLMQDFKGYLGCQALSEMIQFYLVEVMPQAEKHGPEIKEHLNSLGEKLKLLRMRLRRCHRFLPCENKSKAVEQVKSDFNKLQDQGVYKAMNEFDIFINCIEAYMMIKMKS

One experiment has as its target T1, hIL10RalphaFc (human, UniProt Q13651).
T1 chain: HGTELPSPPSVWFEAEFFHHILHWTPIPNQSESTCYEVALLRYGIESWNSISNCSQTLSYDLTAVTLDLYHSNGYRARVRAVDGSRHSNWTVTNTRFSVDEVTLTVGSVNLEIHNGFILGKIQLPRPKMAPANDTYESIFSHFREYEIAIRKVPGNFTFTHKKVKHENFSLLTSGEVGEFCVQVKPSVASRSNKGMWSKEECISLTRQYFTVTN
The experiment in a line: SPR.
The term Kd denotes the concentration at which binding is half-saturated. Turning to B1, the Kd worked out at 0.26 nM.
Still for that read-out and setting: as for B2, the figure is 0.06 nM; as for B3, 0.07 nM; as for B4, 0.11 nM.

The target of the next experiment is T2, mIL10RalphaFc (mouse, UniProt Q61727).
T2 chain: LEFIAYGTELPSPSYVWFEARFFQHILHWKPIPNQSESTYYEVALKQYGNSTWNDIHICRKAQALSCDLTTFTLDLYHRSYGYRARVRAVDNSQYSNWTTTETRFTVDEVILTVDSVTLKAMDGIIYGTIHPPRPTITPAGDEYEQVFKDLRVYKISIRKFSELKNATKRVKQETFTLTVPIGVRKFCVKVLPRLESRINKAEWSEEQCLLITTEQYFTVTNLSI
The experiment in a line: SPR. A general note: SPR reads the build-up and loss of mass on a sensor chip optically.
With B5, the dissociation constant Kd came to 0.81 nM.
Same read-out and setting: as for B6, the figure is 1.92 nM; as for B7, 0.86 nM; as for B8, 0.73 nM.

The values above are taken from patent US20260365708 (published 2026).
